This note sets out measurements from patent publication US20030143665A1 (NEW YORK UNIVERSITY, published 2003).

The target of experiment [1] is T1, recombinant CIRL (calcium-independent receptor of α-latrotoxin), full-length, expressed in COS cells (rat, UniProt O88917 22-1515).
T1 sequence: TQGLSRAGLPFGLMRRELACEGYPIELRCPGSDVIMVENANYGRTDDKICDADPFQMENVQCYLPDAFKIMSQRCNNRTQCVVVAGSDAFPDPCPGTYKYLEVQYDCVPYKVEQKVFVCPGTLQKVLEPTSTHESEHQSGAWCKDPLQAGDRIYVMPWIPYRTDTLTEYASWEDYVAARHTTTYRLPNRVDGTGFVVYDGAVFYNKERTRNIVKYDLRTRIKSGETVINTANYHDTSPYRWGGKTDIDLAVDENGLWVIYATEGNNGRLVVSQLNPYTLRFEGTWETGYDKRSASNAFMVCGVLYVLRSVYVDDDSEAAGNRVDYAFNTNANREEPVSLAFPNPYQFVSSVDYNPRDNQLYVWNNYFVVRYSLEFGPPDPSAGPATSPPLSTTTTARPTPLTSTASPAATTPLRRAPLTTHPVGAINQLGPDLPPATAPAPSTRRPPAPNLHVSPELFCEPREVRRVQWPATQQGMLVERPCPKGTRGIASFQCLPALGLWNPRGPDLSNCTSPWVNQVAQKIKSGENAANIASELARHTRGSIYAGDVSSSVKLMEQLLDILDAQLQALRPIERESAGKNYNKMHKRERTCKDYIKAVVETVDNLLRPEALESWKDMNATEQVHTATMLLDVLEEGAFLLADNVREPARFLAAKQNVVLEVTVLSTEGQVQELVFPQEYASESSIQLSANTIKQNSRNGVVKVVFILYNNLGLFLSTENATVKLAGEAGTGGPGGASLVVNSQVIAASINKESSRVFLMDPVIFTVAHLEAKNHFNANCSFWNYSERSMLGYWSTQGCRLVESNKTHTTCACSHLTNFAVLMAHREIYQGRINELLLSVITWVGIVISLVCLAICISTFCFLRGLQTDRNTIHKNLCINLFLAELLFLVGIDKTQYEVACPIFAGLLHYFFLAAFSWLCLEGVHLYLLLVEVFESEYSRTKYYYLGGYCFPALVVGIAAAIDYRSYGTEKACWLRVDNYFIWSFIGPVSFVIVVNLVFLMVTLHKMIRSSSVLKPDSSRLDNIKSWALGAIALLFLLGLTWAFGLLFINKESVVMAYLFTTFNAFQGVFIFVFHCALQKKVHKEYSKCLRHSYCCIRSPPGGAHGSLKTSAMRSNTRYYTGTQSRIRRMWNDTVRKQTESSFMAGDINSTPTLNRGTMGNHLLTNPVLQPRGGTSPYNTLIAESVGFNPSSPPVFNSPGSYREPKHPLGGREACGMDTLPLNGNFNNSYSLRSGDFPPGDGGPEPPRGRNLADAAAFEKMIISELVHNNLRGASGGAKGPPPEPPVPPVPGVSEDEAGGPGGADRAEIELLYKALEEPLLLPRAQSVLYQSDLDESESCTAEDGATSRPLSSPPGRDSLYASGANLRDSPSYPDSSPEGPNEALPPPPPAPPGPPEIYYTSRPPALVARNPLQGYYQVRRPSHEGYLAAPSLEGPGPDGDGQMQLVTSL

In experiment [2] the target is T2, native CIRL of rat brain (calcium-independent α-latrotoxin binding sites in rat brain membranes); affinity … (rat, UniProt O88917 22-1515).
T2 sequence: T1 sequence

B1: α-latrotoxin (ligand)
chain: EGEDLTLEEKAEICSELELQQKYVDIASNIIGDLSSLPIAGKIAGTIAAAAMTATHVASGRLDIEQTLLGCSDLPFDQIKEVLENRFNEIDRKLDSHSAALEEITKLVEKSISVVEKTRKQMNKRFDEVMKSIQDAKVSPIISKINNFARYFDTEKERIRGLKLNDYILKLEEPNGILLHFKESRTPTDDSLQAPLFSIIEEGYAVPKSIDDELAFKVLYALLYGTQTYVSVMFFLLEQYSFLANHYYEKGYLEKYDEYFNSLNNVFLDFKSSLVGTGTSNNEGLLDRVLQVLMTVKNSEFLGLEKNGVDEMLNEKINLFNKIKEEIEGKQKMTLSETPENFAQISFDKDITTPIGDWRDGREVRYAVQYASETLFSKISHWSDPVSVREKACPTLRMPVDQTRRNVLVFRKFDSSKPQLVGEITPYLSNFIDIDRDLYNAASNPDSAVGFKEFTKLNYDGANIRATFDHGRTVFHAAAKSGNDKIMFGLTFLAKSTELNQPDKKGYTPIHVAADSGNAGIVNLLIQRGVSINSKTYHFLQTPLHLAAQRGFVTTFQRLMESPEININERDKDGFTPLHYAIRGGERILEAFLNQISIDVNAKSNTGLTPFHLAIIKNDWPVASTLLGSKKVDINAVDENNITALHYAAILGYLETTKQLINLKEINANVVSSPGLLSALHYAILYKHDDVASFLMRSSNVNVNLKALGGITPLHLAVIQGRKQILSLMFDIGVNIEQKTDEKYTPLHLAAMSKYPELIQILLDQGSNFEAKTNSGATPLHLATFKGKSQAALILLNNEVNWRDTDENGQMPIHGAAMTGLLDVAQAIISIDATVVDIEDKNSDTPLNLAAQNSHIDVIKYFIDQGADINTRNKKGLAPLLAFSKKGNLDMVKYLFDKNANVYIADNDGMNFFYYAVQNGHLNIVKYAMSEKDKFEWSNTDNNRRDECPNEECAISHFAVCDAVQFDRIEIVKYFVGTLGNFAICGPLHQAARYGHLDIVKYLVEEEFLSVDGSKTDTPLCYASENGHFTVVQYLVSNGAKVNHDCGNGMTAIDKAITKNHLQVVQFLAANGVDFRRKNSRGTTPFLTAVAENALHIAEYLIREKRQDININEQNVDKDTALHLAVYYKNLQMIKLLIKYGIDVTIRNAYDKTALDIAIDAKFSNIVEYLKTKSGKFRR
modifications: 125I label (chloramine T procedure) in the binding and immunoprecipitation assays; coupled to Sepharose in the affinity chromatography
For the molecule B1, the Kd in experiment [1] came out at 0.16 nM; in experiment [2], 0.28 nM.
